# Source: US20090041783A1 (MOCHIDA PHARMACEUTICAL, published 2009)
# B1: F1245-6-2 (antibody, V domains shown)
# VH: QVQLQQPGAELVKPGASVKLSCKASGYTFTSYWMHWVKQRPGQGLEWIGMIHPNSGSTNYNEKFKSKATLTVDKSSSTAYMQLSSLTSEDSAVYYCARGGVTPVAYWGQGTLVTVSA
# VL: SIVMTQTPKFLLVSAGDRVTITCKASQSVSNDVAWYQQKPGQSPKLLIYYASNRYTGVPYRFTGSGYGTDFTFTISTVQAEDLAVYFCQQDYSSPWTFGGGTKLEIKR
# B2: F1232-7-1 (antibody, V domains shown)
# VH: VQLQQSGPELVRPGESVKISCKGSGYTFTDYAIHWVKLSHAKSLEWIGVISIYYDDTNYNQKFKGKATMTVDKSSSTAYMELARLTSEDSAIYYCARRRDSSGPYAMDYWGQGTSVTVSS
# VL: DIVLTQSPASLAVSLGQRATISCRASESVDSYGNSFMHWYQQKPGQPPKLLIYRASNLESGIPARFSGSGSRTDFTLTINPVEADDVATYYCQQSNEDPYTFGGGTKLEIKR
# notes: Mouse hybridoma monoclonal antibody; also called F1232-7-1 antibody
# B3: PEG-F1232-372Fab (Fab, V domains shown)
# VH: VQLQQSGPELVRPGESVKISCKGSGYTFTDYAIHWVKLSHAKSLEWIGVISIYYDDTNYNQKFKGKATMTVDKSSSTAYLELARLTSEDSAIYYCARRRDSSGPYAMDYWGQGTSVTVSS
# VL: DIVLTQSPASLAVSLGQRATISCRASESVDSYGNSFMHWYQQKPGQPPKLLIYRASNLESGIPARFSGSGSRTDFTLTINPVEADDVATYYCQQSNEDPYTFGGGTKLEIK
# modifications: linear 20 KD PEG with succinimide group; sites not given ; Linear 20 KD PEG with succinimide group coupled to the Fab; sites and number not given.
# notes: also called PEGylated F1232-37-2 Fab antibody; PEGylated F1232-37-2Fab fragment; copies: 1 + 1
# B4: F1232-24-1 (antibody, V domains shown)
# VH: VQLQQSGAELVRPGVSVKISCKGSGYTFTDYAMHWVKQSHAKSLEWIGVISTYYGDASYNQKFKGKATMTVDKSSSTAYMELARLTSEDSAIYYCARSYDYDPWFAYWGQGTLVTVSA
# VL: DIVLTQSPASLAVSLGQRATISCRASESVDNYGISFMHWYQQKPGQPPKLLIYRASNLESGIPARFSGSGSRTDFTLTINPVETDDVATYYCQQSNKDPLTFGAGTKLELKR
# notes: Mouse hybridoma monoclonal antibody
# B5: PEGylated F1232-37-2 antibody (antibody, V domains shown)
# VH: VQLQQSGPELVRPGESVKISCKGSGYTFTDYAIHWVKLSHAKSLEWIGVISIYYDDTNYNQKFKGKATMTVDKSSSTAYLELARLTSEDSAIYYCARRRDSSGPYAMDYWGQGTSVTVSS
# VL: DIVLTQSPASLAVSLGQRATISCRASESVDSYGNSFMHWYQQKPGQPPKLLIYRASNLESGIPARFSGSGSRTDFTLTINPVEADDVATYYCQQSNEDPYTFGGGTKLEIKR
# modifications: linear PEG of 20 KD coupled through a succinimide group; sites not stated
# notes: Whole mouse F1232-37-2 reacted with PEG at antibody:PEG 1:10 (molar) and purified on Q Sepharose HP; also called F1232-37-2 PEGylated antibody
# B6: F1201-18 (antibody, V domains shown)
# VH: VQLVESGGGLVKPGGSLKLSCAASGFTFSSYAMSWVRQTPEKRLEWVAIISSGGSYTYYPDSVKGRFTISRDNAKNTLYLHMSSLRSEDTAMYYCARQGGGYFDYWGQGTTLTVSS
# VL: DIVLTQSPASLAVSLGQRATISCRASESVDSYGNSFMHWYQQKPGQPPKLLIYRASNVESGIPARFSGSGSRTDFTLTINPVEADDVATYYCQQSNEDPPTFGAGTKLELKR
# notes: as for B4
# B7: F1232-18-3 (antibody, V domains shown)
# VH: VMLVESGGGLVKPGGSLKLSCAASGFTFSSYAMSWVRQTPEKRLEWVATISSGGSYTYYPDSVKGRFTISRDNAKNTLYLQMSSLRSADTAMYYCARDYGYFDYWGQGTTLTVSS
# VL: DIVLTQSPASLAVSLGQRATISCRASESVDNYGISFMHWYQQKPGQPPKLLFYRASNLESGIPARFSGSGSRTDFTLTINPVETDDVATYYCQQSNTDPRTFGGGTKLEIKR
# notes: as for B4
# B8: F1232-17-1 (antibody, V domains shown)
# VH: VQLVESGGDLVKPGGSLKLSCAASGFTFSSYGMSWVRQTPDKRLEWVATISSGGSYTYYPDNVKGRFTISRDNAKNTLYLQMSSLNSEDTAMYYCARQVYYFGSCDYWGQGTTLTVSS
# VL: DIVLTQSPASLAVSLGQRATISCRASESVDNYGISFMHWYQQKPGQPPKLLIYRASNLESGIPARFSGSGSRTDFTLTINPVETDDVATYYCQQSNKDPWTFGGGTKLEIKR
# notes: as for B4
# Columns and labels:
# [1] = target: T1, human GPVI extracellular region-human Fc fusion protein (hGPVI-hFc) (human); test: ELISA on immobilised hGPVI-hFc; + A450 0.5-1.0, ++ 1.0-2.0, +++ more than 2.0
# T1 construct: Expressed in COS-1, purified on Protein A; also called GPVI-HHH-hFc; hGPVIHHH-hFc
# T1 sequence (chain, as listed by the source limits assumed): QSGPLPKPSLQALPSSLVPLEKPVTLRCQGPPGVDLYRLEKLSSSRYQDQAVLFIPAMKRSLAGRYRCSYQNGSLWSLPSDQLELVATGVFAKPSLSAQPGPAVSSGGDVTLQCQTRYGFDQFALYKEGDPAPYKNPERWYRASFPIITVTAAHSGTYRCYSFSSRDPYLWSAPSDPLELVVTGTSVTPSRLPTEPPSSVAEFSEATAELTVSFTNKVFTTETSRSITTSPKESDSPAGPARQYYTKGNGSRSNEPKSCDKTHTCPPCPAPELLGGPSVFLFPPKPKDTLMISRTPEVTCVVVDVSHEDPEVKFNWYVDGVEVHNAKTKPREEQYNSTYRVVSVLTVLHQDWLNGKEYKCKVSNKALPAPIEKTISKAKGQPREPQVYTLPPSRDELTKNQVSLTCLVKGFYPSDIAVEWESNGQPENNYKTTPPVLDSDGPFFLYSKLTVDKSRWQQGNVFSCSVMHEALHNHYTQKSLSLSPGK
# Protocol: The hGPVI-hFc prepared by EXAMPLE 1B was diluted with D-PBS to 2 μg/mL and added to immunoplate (Maxisorp NUNC) at 50 μL/well. After incubation at 37° C. for one hour, the well was washed five times with ion-exchanged water, and D-PBS (pH7.4) containing 2% StabilGuard (Surmodics) was added to each well in 100 μL for blocking. Next, culture supernatant was added to each well and incubated at 37° C. for one hour. After incubation, the well was washed three times with the saline containing 0.05% Tween20. Peroxidase-labeled anti-mouse immunoglobulin antibody (DAKO, P260) was 1000-fold diluted with D-PBS containing 10% rabbit serum and added to each well at 50 μL. After incubation at 37° C. for one hour, washing in a similar manner was performed and TMB solution (BioFix) was added to each well. After ten minutes at room temperature, the reaction was terminated with 0.5 M sulfuric acid solution. Subsequently, absorbance at 450 nm was measured with the plate spectrophotometer (Multiscan JX, Dainippon Pharmaceutical). As a result, the cell whose culture supernatant reacted to hGPVI-hFc was selected and a cloning with limiting dilution method (“The Introduction to Monoclonal Antibody Experimental Procedure” written by Tamie Andoh and Takeshi Chiba (Kodansha, p 83)) was performed. Eight days later, screening was done in a similar manner and the antibody which reacts to hGPVI-hFc was selected.
# (§1) To analyze a property for each antibody obtained in EXAMPLE 13, binding to human GPVI-hFc, competition with F1232-37-2 described in EXAMPLE 4 and specificity for L9 loop were investigated. That is, as for the binding to human GPVI, according to the method of EXAMPLE 2, a binding activity to immobilized antigen was measured. For the binding activity, the range of absorbance from 0.5 to 1.0 is represented by “+”, from 1.0 to 2.0 by “++”, the range more than 2.0 by “+++”. The competitive test with F1232-37-2 was performed as follows. That is, according to the method by Nakane et al. (J. Histochem. Cytochem., 22, 1084, 1974), peroxidase (TOYOBO)-labeled F1232-37-2 antibody was prepared and an antibody concentration was calculated from the amount of the antibody used.
# [2] = target: T1, human GPVI extracellular region-human …; test: competition ELISA on hGPVI-hFc plate; competitor: peroxidase-labelled F1232-37-2; +++ more than 50%, ++ 30-50%, + 10-30% inhibition
# Protocol: as §1
# Next, by using the peroxidase-labeled antibody, the competitive test for a variety of purified antibody was performed. That is, 25 μL of the above labeled antibody and 25 μL of each purified antibody were added to well of hGP-hFc-immobilized plate. After incubation at 37° C. for one hour, the well was washed five times with the saline containing 0.05% Tween20, and the reaction mixture was developed with TMB solution (BioFix). After incubation at room temperature for 10 minutes, the reaction was terminated with 0.5 M sulfuric acid solution and an absorbance at 450 nm was measured with the plate spectrophotometer (Multi-Scan JX, Dainippon Pharmaceutical).
# [3] = target: T1, human GPVI extracellular region-human …; test: ELISA, collagen on plate, hGPVI-hFc plus antibody; +++ more than 50%, ++ 30-50%, + 10-30% inhibition
# [4] = target: T1, human GPVI extracellular region-human …; test: ELISA of hybridoma culture supernatant on coated hGPVI-hFc (selection criterion)
# Protocol: Next, culture supernatant was added to each well and incubated at 37° C. for one hour. After incubation, the well was washed three times with the saline containing 0.05% Tween20. Peroxidase-labeled anti-mouse immunoglobulin antibody (DAKO, P260) was 1000-fold diluted with D-PBS containing 10% rabbit serum and added to each well at 50 μL. After incubation at 37° C. for one hour, washing in a similar manner was performed and TMB solution (BioFix) was added to each well. After ten minutes at room temperature, the reaction was terminated with 0.5 M sulfuric acid solution. Subsequently, absorbance at 450 nm was measured with the plate spectrophotometer (Multiscan JX, Dainippon Pharmaceutical). As a result, the cell whose culture supernatant reacted to hGPVI-hFc was selected and a cloning with limiting dilution method (“The Introduction to Monoclonal Antibody Experimental Procedure” written by Tamie Andoh and Takeshi Chiba (Kodansha, p 83)) was performed. Eight days later, screening was done in a similar manner and the antibody which reacts to hGPVI-hFc was selected.
# After one week, hybridoma, which produces a desired antibody was screened using the binding property to hGPVI-hFc and hGPVI-mL9-hFc prepared in EXAMPLE 7 as an index. That is, the purified hGPVI-hFc or hGPVI-mL9-hFc, which was prepared in EXAMPLE 1, was diluted with D-PBS (pH7.4) to 1 μg/mL. And 50 μL/well of the solution was added to make hGPVI-hFc or hGPVI-mL9-hFc-coated plate using the same method as that of EXAMPLE 2. Next, a culture supernatant was added to each well, and after incubation at room temperature for one hour, by the same method as that of EXAMPLE 2, using peroxidase-labeled anti-mouse immunoglobulin antibody (DAKO, P260) a reaction was performed to measure an absorbance. As a result, the cell producing an antibody that binds to the purified hGPVI-hFc (absorbance: equal to or more than one), but not hGPVI-mL9-hFc (abdorbance: equal to or less than 0.5) was selected and cloned by the method described in EXAMPLE 2. Eight through ten days later, a screening was done as with the similar way to obtain a hybridoma producing an L9-specific mouse anti-human GPVI antibody. As with EXAMPLE 2B (3), the obtained hybridoma was cultured and a monoclonal antibody was purified. The sub-type of each antibody was determined using IsoStrip Mouse Monoclonal antibody Isotyping Kit (Roche).
# [5] = target: T1, human GPVI extracellular region-human …; test: SPR (BIACORE3000), GPVI-Fc on CM5 chip, antibody 1.25-40 nM as analyte, bivalent analyte fit
# Protocol: (§2) Dissociation constant for the anti-GPVI monoclonal antibody prepared in EXAMPLE 2 was measured using protein interaction analyzer BIACORE3000 (BIACORE). That is, to sensor chip, CM5 chip (BIACORE), GPVI substitution mutant (hGPVIHHH-hFc and FFH-hFc) that is prepared in EXAMPLE 1 was linked according to the manual. Then each antibody was diluted with HBS-EP buffer solution (BIACORE) to prepare a series of diluted solution from 1.25 to 40 nM, and analyzed with BIACORE3000. Every each antibody bound chip, the chip was regenerated with glycine buffer solution at pH1.5. The obtained result was analyzed with Bivalent analyte, the evaluation software (BIACORE) to calculate dissociation constant. It was shown that each anti-GPVI monoclonal antibody has a sufficient affinity to GPVI-HHH-hFc.
# [6] = target: T2, cynomolgus monkey D1D2-human D3 chimeric GPVI-human Fc fusion protein (GPVI-FFH-hFc) (cynomolgus monkey (D1, D2) and human …); test: as above
# T2 construct: also called Monkey GPVI
# T2 sequence (chain, as listed by the source mutant limits assumed): as the sequence (chain, as listed by the source limits assumed) above, with S2R, S61H, L78P, R166G, V181M, P442S counted along it
# Protocol: as §2
# [7] = target: T1, human GPVI extracellular region-human …; test: ELISA on immobilised hGPVI-hFc (GPVI antigen binding assay of Example 31)
# [8] = target: T1, human GPVI extracellular region-human …; test: ELISA on immobilised hGPVI-hFc, peroxidase-labelled anti-mouse immunoglobulin antibody
# Protocol: Binding activity to the antigen was detected by ELISA. To each well of immunoplate immobilized with hGPVI-hFc (prepared by the method described in EXAMPLE 2 and the like), F1232-37-2 antibody and F1232-37-2 PEGylated antibody, wherein both antibodies had been adjusted to the same concentration, was added and the plate was incubated at 37° C. for one hour. The well was washed with saline containing 0.05% Tween20. Then 50 μL of peroxidase-labeled anti-mouse immunoglobulin antibody (DAKO, P260), which had been diluted by 1000-fold with 10% rabbit serum-containing D-PBS, was added to each well. After incubation at 37° C. for one hour, coloring reaction by the TMB substrate was done to measure an absorbance at 450 nm with plate spectro-photometer (Molecular Devices, Wako). As a result, it was confirmed that both F1232-37-2 antibody and PEGylated F1232-37-2 antibody have almost equivalent binding activity.
Binder,Kd [5],Kd [6],also measured
B1,,,absorbance [1]: 1 to 2 od; percent inhibition [2]: > 50%; percent inhibition [3]: 10 to 30%; absorbance [4]: ≥ 1 absorbance
B2,34.7 nM,343 nM,
B3,,,EC50 (read off the curve) [7]: ~0.3 µg/mL
B4,0.25 nM,0.71 nM,
B5,,,EC50 (read off the curve) [8]: ~0.02 µg/mL
B6,1.16 nM,0.619 nM,
B7,1.65 nM,365 nM,
B8,0.522 nM,0.177 nM,
